# Positions count from the first letter of the chain named. Several values for one entry are separate records, joined by “and”; a condition that tells them apart may be missing. Equal values may be shown once. Read-outs that look alike come from different tables or passages of the source.
# B1: m16G8 (antibody, V domains shown)
# VH: EVQLQESGPGLVKPGASVKISCKASGYSFTGYYMNWVKQSPEKSLEWIGEINPSTGGTTYNQKFKAKATLTVDKSSSTAYMQLKSLTSEDSAVYYCVRYSHYYGSGSWYFDVWGTGTTVTVSS
# VL: DIQMTQSPASLSASVGETVTITCRASENIYSNLAWYQQKQGKSPQLLVNAATNLADGVPSRFSGSGSGTQFSLKINSLQPEDFGSYYCQHFYVTPYMFGSGTKLEIKR
# B2: m2E4 (antibody, V domains shown)
# VH: B1 VH with G10E
# VL: B1 VL with M97T
# B3: m21B2 (antibody, V domains shown)
# VH: EVQLQESGAELVRPGASVTLSCKTSGYTFTDYEMHWVKQTPVHGLEWIGAIDPETGGTAYNQKFKGKATLTADKSSSTAYMELSRLTSEDSAVYYCTGNYATDYWGQGTSVTVSS
# VL: DIVMSQSPSSLAVSAGEKVTMSCKSSQSLFNSRSRKNYLAWYQLKPGQSPKLLIYWASTRESGVPDRFTGSGSGTDFTLTISSVQAEDLAVYYCKQSNYLWTFGGGTKLEIKR
# B4: m2D8 (antibody, V domains shown)
# VH: EVQLQESGGELVRPGTSVKISCKASGYTFTNFWLGWIKERPGHGLEWIGDIYPGGHYTNYNENFKGKATLTADTSSNTAYMQVSSLTSEDSAVYFCFTQYYDMDYWGQGTSVTVSS
# VL: not shown
# B5: m8C4 (antibody, V domains shown)
# VH: EVQLQESGPELKKPGETVKISCKASGYTFTTYGMSWVKQAPGKGLKWMGRINTYSGVPTYADEFKGRFAFSLENSASTAYLQINNLKNEDTATYFCARGDGGHWFANWGQGTLVTVSA
# VL: DIQMTQSPSSLSASLGGKVTITCKASQDINKNIAWYQHKPGKGPRLLIWYKSALQPGIPSRFSGSGSGRDYSFSISNLEPEDIATYSCLQYDNLPPTFGGGTKLEIKR
# B6: m17C6 (antibody, V domains shown)
# VH: EVQLQESGPGLVQPSQSLSITCTVSGFSLTSYGVHWVRQSPGKGLEWLGVIWSGGSTDYNAAFISRLSISKDNSKSQVFFKMNSLQADDTAIYYCARNWFDYDNYYSMDYWGQGTSVTVSS
# VL: DIQMTQTTSSLSASLGDRVTISCRASQDISNYLNWYQQKPDGTVKLLIYYTSRLHSGVPSRFSGSGSGTDFSLTISNQEPEDIATYYCQQYSNLPWTFGGGTKLEIKR
# Tests used:
# [1] = target: cleaved EBOV GP (GPcl) (Ebola virus (EBOV)), Q05320; experiment: ELISA on thermolysin cleaved EBOV GP (GPcl), OD650 against nM mAb; settings: remark: other sources report otherwise
# [2] = target: EBOV GP[change] (Ebola virus), Q05320; settings: remark: other sources report otherwise
# [3] = target: EBOV GP[change] (Ebola virus), Q05320; settings: remark: other sources report otherwise; remark: listed apart in the source
# [4] = target: RESTV GP[change] (Reston virus) (UniProt Q66799)
# [5] = target: EBOV GP[change] (Ebola virus) (UniProt Q05320)
# [6] = target: BDBV GP[change] (Bundibugyo virus (BDBV)); experiment: ELISA, GPΔTM coated
# [7] = target: MARV GP[change] (Marburg virus) (UniProt P35253)
# [8] = target: SUDV GP[change] (Sudan virus) (UniProt Q66814)
# [9] = target: MARV GP[change] (Marburg virus), P35253; settings: remark: other sources report otherwise
# [10] = target: cleaved EBOV GP (GPcl) (Ebola virus (EBOV)), Q05320; experiment: ELISA, cleaved EBOV GP coated; settings: remark: other sources report otherwise
# [11] = target: cleaved EBOV GP (GPcl) (Ebola virus (EBOV)), Q05320; experiment: ELISA on cathepsin-cleaved EBOV GP at pH 5.5; settings: remark: other sources report otherwise
# [12] = target: cleaved EBOV GP (GPcl) (Ebola virus (EBOV)), Q05320; experiment: ELISA on cathepsin-cleaved EBOV GP at pH 7; settings: remark: other sources report otherwise
# [13] = target: EBOV GP[change] (Ebola virus) (UniProt Q05320); remark: listed apart in the source
# [14] = target: EBOV GP[change] (Ebola virus), Q05320; settings: remark: other sources report otherwise; remark: listed apart in the source
binder,measurement,setting,value
B1,EC50,[1],> 100 nM
same,EC50,[2],1.23 µg/mL
same,EC50,[3],3.3 nM
B2,EC50,[4],> 10 µg/mL
same,EC50,[5],> 10 µg/mL
same,EC50,[6],0.69 µg/mL
B3,EC50,[7],0.0688 µg/mL
same,EC50,[8],> 10 µg/mL
same,EC50,[2],> 10 µg/mL
same,EC50,[9],0.0307 µg/mL
B4,EC50,[10],0.72 µg/mL
same,EC50 (read off the curve),[11],1 µg/mL
same,EC50 (read off the curve),[12],0.7 µg/mL
same,EC50,[2],26.2 µg/mL
same,EC50,[9],0.0573 µg/mL
B5,EC50,[8],0.15 µg/mL and 0.06 µg/mL
same,EC50,[5],0.26 µg/mL
same,EC50,[6],> 10 µg/mL
same,EC50,[13],6.7 nM
same,EC50,[2],0.21 µg/mL
same,EC50,[3],2.6 nM
B6,EC50,[1],0.6 nM
same,Kd,[14],11 nM
same,EC50,[2],0.03 µg/mL
same,EC50,[3],1 nM
